Among the data in patent US5948668 are Specific Activity (u/mg) of CPB (Hippuryl-L-Arg substrate) after folding of ProCPB and trypsin treatment and Specific Activity (u/mg) of CPB-C (Hippuryl-L-Arg substrate) after folding of ProCPB-C and trypsin treatment values, retold here.

In assay [1] the target is recombinant rat procarboxypeptidase B expressed by plasmid pλProCPB (rat).
Assay [2] deals with recombinant rat procarboxypeptidase B with the Cys290->Ser mutation, expressed by plasmid pProCPB-C (rat).

Turning to trypsin (enzyme), the Specific Activity (u/mg) of CPB (Hippuryl-L-Arg substrate) after folding of ProCPB and trypsin treatment in assay [1] came to 42.9 u/mg. In addition, the Specific Activity (u/mg) of CPB-C (Hippuryl-L-Arg substrate) after folding of ProCPB-C and trypsin treatment in assay [2] was 20.9 u/mg.
